Laboratory results from US10052364B2, “Osteocalcin as a treatment for cognitive disorders” (THE TRUSTEES OF COLUMBIA UNIVERSITY IN THE CITY OF NEW YORK, priority 2013, dated 2018).

Tests used:
[1] = system: WT mice; assay: Contextual Fear Conditioning after acute hippocampal injection; format: in vivo, mouse; conditions: for freezing behavior compared to controls, 24 hours after the initial shocks: 10 ng injected acutely in both hemispheres, n=4 per group
Method: FIG. 11. CREB activation by osteocalcin is functionally relevant. Contextual fear conditioning in 3.5 month old mice injected acutely with 10 ng recombinant uncarboxylated osteocalcin 24 hours prior to context exposure. 3 shocks of 0.55 mA were delivered to mice 1 min apart.
To determine whether these acute injections and corresponding activation of the CREB pathway are functionally relevant, Contextual Fear Conditioning (CFC), a hippocampus dependent task that assesses long term memory, was performed. Mice were injected acutely in both hemispheres with either PBS or 10 ng recombinant uncarboxylated osteocalcin.

[2] = system: Osteocalcin-/- mice born from Osteocalcin-/- mothers; assay: Osteocalcin injections in pregnant Osteocalcin-/- mothers (E0.5-E18.5): offspring behavior and brain histology; format: in vivo, mouse
Method: FIG. 7. Maternal osteocalcin determines spatial learning and memory in adult offspring. (A-F) DLT (A), EPMT (B), OFT (C), FST (D), TST (E), and MWMT (F) performed in 3-month-old Ocn^−/− mice born from Ocn^−/− mothers injected once a day with vehicle or osteocalcin (240 ng/day) during pregnancy compared to WT mice. (G) Surface of the lateral ventricle over brain area (%) of E18.5 hippocampi coronal sections of WT embryos originating from WT mothers and Ocn^−/− embryos originating from osteocalcin-injected Ocn^−/− mothers. (H) Number of apoptotic cells (stained by TUNEL assay) of E18.5 hippocampi coronal sections of WT embryos originating from WT mothers and Ocn^−/− embryos originating from Ocn^−/− mothers injected with osteocalcin (240 ng/day). (I) Cresyl violet, NeuN immunofluorescence, and dentate gyms area (% versus WT) of WT and Ocn^−/− embryos originating from osteocalcin-injected Ocn^−/− mothers. Scale bars=0.5 mm.
Osteocalcin^−/−, Gprc6a^−/−, Osteocalcin-mCherry, and Osteocalcin floxed mice have been previously described (Ducy et al., 1996, Nature 382:448-452; Oury et al., 2011, Cell 144:796-809). Mouse genotypes were determined by PCR. For all experiments, controls were littermate female WT, Cre-expressing, or flox/flox. All mice were maintained on a pure 129-Sv genetic background except for the inducible deletion Osteocalcin model (mix background: 25% C57/BL6 and 75% 129sv). For inducible gene deletion mice, tamoxifen was prepared in corn oil and injected intraperitoneally (IP) (1 mg/20 g of body weight) over one week. For osteocalcin delivery to pregnant mice, IP injections (240 ng/day) were performed as soon as a plug was present daily until delivery (E0.5-E18.5). For osteocalcin or leptin infusion in adult Osteocalcin^−/− or ob/ob mice, pumps (Alzet micro-osmotic pump, Model 1002) delivering osteocalcin (300 ng/hr), leptin (50 ng/hr), or vehicle were surgically installed subcutaneously in the backs of 3-month old mice. For the postnatal rescue of cognitive functions in Osteocalcin^−/− mice, osteocalcin (10 ng/hour) or vehicle were delivered intrasubventricularly (icy) as previously described (Ducy et al., 2000, Cell 100:197-207). Leptin and osteocalcin content in sera and tissues were determined by ELISA.
Cresyl violet staining to visualize brain morphology was carried out by incubating 20 μm cryosections defatted with 1:1 chloroform:ethanol in cresyl violet acetate (1 g/L) overnight. The stain was differentiated using ethanol and xylene and mounted using DPX mounting medium for histology (Sigma).
To assess apoptosis in WT and Osteocalcin^−/− brains, 20 μm cryostat sections were processed using the APOPTAG® Fluorescein Direct In Situ Apoptosis Detection Kit (Millipore) according to manufacturer's protocol. Images were obtained using Leica DM 4000B, and Image J was used to quantify cell number and intensity of staining.
For western blotting, frozen hippocampi from E18.5 embryos were lysed and homogenized in 250 μl tissue lysis buffer (25 mM Tris HCl 7.5; 100 mM NaF; 10 mM Na4P2O7; 10 mmM EDTA; 1% NP 40). Samples were pooled together in threes by genotype to reduce variability. Proteins were transferred to nitrocellulose membranes and blocked with TBST-5% milk prior to overnight incubation with primary antibody in TBST-5% BSA. HRP-coupled secondary antibodies and ECL were used to visualize the signal.
To further evaluate the importance of maternal osteocalcin for the acquisition of spatial learning and memory in adult offspring, pregnant Osteocalcin^−/− mothers from E0.5 to E18.5 were treated with injections, once a day, of osteocalcin (240 ng/day). Osteocalcin was never injected in these females or their pups after delivery. […] Likewise, the number of apoptotic cells was reduced and the number of NeuN positive cells was increased compared to Osteocalcin^−/− embryos originating from Osteocalcin^−/− mothers that were not injected (FIG. 7I-J).

[3] = 240 ng/day once a day to pregnant Osteocalcin-/- mothers, E0.5 to E18.5

B1: uncarboxylated osteocalcin: Recombinant osteocalcin bacterially produced, cleaved from the GST subunit; completely undercarboxylated at all three sites (protein, listed as Homo sapiens)
chain: MRALTLLALLALAALCIAGQAGAKPSGAESSKGAAFVSKQEGSEVVKRPRRYLYQWLGAPVPYPDPLEPRREVCELNPDCDELADHIGFQEAYRRFYGPV
modifications: uncarboxylated
notes: Recombinant osteocalcin bacterially produced, cleaved from the GST subunit; completely undercarboxylated at all three sites
% freezing on Day 1 ([1]; 10 ng injected 24 hours prior to context exposure, 3.5 month old mice): the same for both groups | freezing behavior compared to controls, 24 hours after the initial shocks [1]: increased freezing behavior | freezing behavior compared to controls, 24 hours after the initial shocks ([1]; listed as recombinant uncarboxylated osteocalcin): increased freezing along with hyperexcitability | anxiety or depression phenotypes of adult offspring [2, 3]: did not have any beneficial effect | deficit in learning and memory of adult offspring [2, 3]: rescued over two third of their deficit | cerebral ventricle enlargement in brains of E18.5 Osteocalcin-/- embryos (cresyl violet) ([2]; injection of the pregnant Osteocalcin-/- mothers, 240 ng/day): rescue of the cerebral ventricle enlargement | thickness defect in the CA3 and CA4 regions of the hippocampus in adult Osteocalcin-/- offspring ([2]; mothers injected during pregnancy): rescue of the thickness defect | number of NeuN positive cells ([2]; versus embryos from Osteocalcin-/- mothers not injected): increased | number of apoptotic cells in E18.5 embryo hippocampus ([2]; versus embryos from Osteocalcin-/- mothers not injected, listed as Uncarboxylated osteocalcin): prevent this neuronal apoptosis | number of apoptotic cells in E18.5 embryo hippocampus ([2]; versus embryos from Osteocalcin-/- mothers not injected, listed as osteocalcin): reduced | Caspase-3 cleaved protein level in hippocampus of E18.5 embryos (Western blot) ([2]; versus embryos from mothers not injected): decrease
